Experimental data taken from publication PMC8795526.

Biological target: human neonatal Fc receptor (hFcRn) (human) (UniProt P55899)
Assay: SPR

Chain of UniProt P55899 (P55899 24-297, chain 1 of 2): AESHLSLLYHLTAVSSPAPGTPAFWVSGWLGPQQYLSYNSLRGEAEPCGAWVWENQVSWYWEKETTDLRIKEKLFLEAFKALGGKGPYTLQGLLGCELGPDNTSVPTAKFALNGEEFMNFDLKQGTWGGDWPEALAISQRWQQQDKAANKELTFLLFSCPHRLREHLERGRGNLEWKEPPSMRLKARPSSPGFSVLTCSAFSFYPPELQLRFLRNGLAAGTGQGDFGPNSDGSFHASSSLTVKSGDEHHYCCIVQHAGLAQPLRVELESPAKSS
Chain of UniProt P55899 (P61769 21-119, chain 2 of 2, further chain): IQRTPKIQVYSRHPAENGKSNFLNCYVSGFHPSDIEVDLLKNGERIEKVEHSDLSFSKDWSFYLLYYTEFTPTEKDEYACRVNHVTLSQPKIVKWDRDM

**Q.** How did the Kd turn out when 3F6-hIgG1 (antibody) was run?
**A.** 538 nM
